For experiment [1], the target named is T1, cynomolgus monkey PVRIG-Fc protein (cynomolgus monkey, UniProt Q6DKI7 41-171 (human entry), limits assumed).
T1 construct: no signal peptide limits stated; Bivalent antigen; also called Cynomolgus PVRIG-hFc; not shown: human Fc (hFc)
T1 chain: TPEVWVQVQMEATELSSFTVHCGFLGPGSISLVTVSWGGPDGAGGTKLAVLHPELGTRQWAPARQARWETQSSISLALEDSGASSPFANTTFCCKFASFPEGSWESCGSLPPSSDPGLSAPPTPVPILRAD
Put plainly: BLI (ForteBio), antibody on AHQ sensor, 100 nM Fc antigen, bivalent, 1:1 model. As to the method: The antibody-loaded sensor was continued to be loaded in a high concentration of irrelevant intact antibody for 10 min, saturating the Fc-binding site on the AHQ sensor. The saturated sensor was incubated in 100 nM target antigen to the plateau phase, and then the sensor was transferred to an analysis buffer and incubated for at least 2 minutes for measuring dissociation rate. The kinetic analysis was performed using a 1:1 binding model.
(In BLI a coated tip is dipped into the sample, and binding shifts an interference pattern.)

For experiment [2], the target named is T2, mouse PVRIG overexpressed on CHO cells (mouse, UniProt A0A1B0GS01 1-234).
T2 construct: also called CHO-muPVRIG cells
T2 sequence: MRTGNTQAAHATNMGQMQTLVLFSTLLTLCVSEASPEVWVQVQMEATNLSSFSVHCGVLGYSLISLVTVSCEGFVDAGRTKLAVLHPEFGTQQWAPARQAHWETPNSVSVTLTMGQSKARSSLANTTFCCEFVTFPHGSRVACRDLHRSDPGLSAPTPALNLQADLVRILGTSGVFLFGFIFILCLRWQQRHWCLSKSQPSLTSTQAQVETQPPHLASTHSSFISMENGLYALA
Put plainly: flow cytometry, CHO-muPVRIG cells. As to the method: (§1) The overexpressing cells were expanded and adjusted to an appropriate cell density, and added to a 96-well flow cytometry plate. After centrifugation, the cells were added with a gradiently diluted sample to be tested, and incubated at 4° C. for 30 minutes. The cells were washed twice with PBS, and added with a fluorescent secondary antibody correspondingly diluted to an appropriate concentration, then incubated at 4° C. for 30 minutes, and washed twice with PBS. Cells were resuspended with PBS, and detected on a CytoFlex flow cytometer, and the corresponding MFI was calculated. Graphpad software was used for graphical analysis to obtain EC₅₀ values.

Experiment [3] has as its target T3, human PVRIG-his protein (human, UniProt Q6DKI7 41-171, limits assumed).
T3 construct: not shown: his tag
T3 sequence: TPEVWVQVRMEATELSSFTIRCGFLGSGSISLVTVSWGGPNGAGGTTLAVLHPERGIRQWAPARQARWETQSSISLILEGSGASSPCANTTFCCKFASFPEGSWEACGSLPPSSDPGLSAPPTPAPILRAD
Put plainly: BLI (ForteBio), antibody on AHQ sensor, 100 nM antigen, monovalent, 1:1 model. As to the method: The antibody-loaded sensor was incubated in 100 nM target antigen to the plateau phase, and then the sensor was transferred to an analysis buffer and incubated for at least 2 minutes for measuring dissociation rate. The kinetic analysis was performed using a 1:1 binding model.

Experiment [4] has as its target Biotin-labeled mouse PVRIG protein with Mouse IgG2a Fc tag (mouse). Put plainly: competition ELISA: biotin mouse PVRIG-mouse IgG2a Fc binding to coated mouse CD112-his. As for the experimental part:
The coating solution in the ELISA plate was discarded, and the ELISA plate was washed three times with 1×PBST and was blocked with 5% BSA/PBS at 200 μL/well for 2 hours at room temperature. […] The SA-HRP dilution was discarded, the ELISA plate was washed three times with 1×PBST, ELISA Chromogen Solution was added at 100 μL/well and incubated for 1-3 minutes at room temperature, ELISA stopping solution was added at 50 μL/well and the absorbance values were read at 450 nm.
A general note: In an ELISA, binding on a coated surface is turned into a signal by an enzyme label.

Experiment [5] deals with T4, biotin-labeled TIGIT protein (co-binding ELISA) (human, UniProt Q495A1 22-141, biotin-labeled (site not stated)).
T4 construct: Whole entry named; also called human TIGIT protein
T4 sequence (looked up): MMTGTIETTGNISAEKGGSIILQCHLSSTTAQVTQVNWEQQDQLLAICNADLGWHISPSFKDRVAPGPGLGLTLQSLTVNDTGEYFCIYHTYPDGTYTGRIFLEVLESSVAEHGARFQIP
Put plainly: co-binding (sandwich) ELISA: coated human PVRIG protein, antibody titrated, detected with biotin-labeled TIGIT protein 1 ug/mL and SA-HRP, absorbance 450 nm.

The target in experiment [6] is T5, human PVRIG expressed on cells (human, UniProt Q6DKI7 41-326).
T5 construct: whole, on cells; cDNA encoding human PVRIG in pCHO1.0 for CHO cells; also called CHO-huPVRIG cells
T5 sequence (looked up): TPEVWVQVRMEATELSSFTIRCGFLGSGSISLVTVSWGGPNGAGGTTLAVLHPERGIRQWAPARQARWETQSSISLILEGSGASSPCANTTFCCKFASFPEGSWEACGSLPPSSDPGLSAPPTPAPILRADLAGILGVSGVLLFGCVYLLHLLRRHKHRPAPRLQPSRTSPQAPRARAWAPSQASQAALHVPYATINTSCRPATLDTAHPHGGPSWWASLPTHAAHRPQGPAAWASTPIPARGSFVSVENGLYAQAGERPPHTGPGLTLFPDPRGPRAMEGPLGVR
As to the kind of experiment: flow cytometry, CHO-huPVRIG cells. As for the experimental part:
as §1

The target of experiment [7] is T6, human PVRIG protein with mouse IgG2a Fc tag (human; mouse, UniProt Q6DKI7 41-171, limits assumed).
T6 construct: Whole entry named; not shown: mouse IgG2a Fc tag
T6 sequence (looked up): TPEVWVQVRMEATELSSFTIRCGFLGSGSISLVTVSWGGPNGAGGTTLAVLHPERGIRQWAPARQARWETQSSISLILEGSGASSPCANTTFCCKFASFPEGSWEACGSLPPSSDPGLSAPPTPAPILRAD
As to the kind of experiment: flow cytometry, competition: human PVRIG-mouse IgG2a Fc (1 ug/mL) binding to CHO-huCD112 cells. As for the experimental part: Specifically, CHO cells overexpressing human CD112 (CHO-huCD112 cells) were generated by transfection of the pCHO1.0 vector (purchased from Invitrogen) with cDNA encoding human CD112 cloned into the multiple cloning site (MCS), followed by pressure screening. […] APC-conjugated goat anti-mouse IgG antibody diluted 100-fold with PBS was added at 100 μL/well, incubated at 4° C. for 30 minutes and washed twice with PBS. Cells were resuspended with PBS at 100 μL/well, and detected on a CytoFlex flow cytometer, and the corresponding MFI was calculated.

Experiment [8] addresses T7, cynomolgus PVRIG overexpressed on CHO cells (cynomolgus, UniProt A0A2K5WVV8 1-322).
T7 construct: whole, on cells; also called CHO-cynoPVRIG cells
T7 sequence: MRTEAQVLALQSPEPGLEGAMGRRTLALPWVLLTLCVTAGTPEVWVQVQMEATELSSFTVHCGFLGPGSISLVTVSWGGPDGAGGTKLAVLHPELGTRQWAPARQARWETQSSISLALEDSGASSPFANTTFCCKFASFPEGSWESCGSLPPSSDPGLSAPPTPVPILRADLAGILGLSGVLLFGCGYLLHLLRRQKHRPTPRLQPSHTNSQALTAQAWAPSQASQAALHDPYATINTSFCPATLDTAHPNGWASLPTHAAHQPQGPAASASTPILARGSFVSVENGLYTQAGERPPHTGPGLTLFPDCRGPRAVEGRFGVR
Put plainly: flow cytometry, CHO-cynoPVRIG cells. As to the method: as §1
Background: Flow cytometry measures light scatter and fluorescence of single cells or particles in a stream.

Results on 1 molecule are retold here after US20250223354A1 (BIOTHEUS, published 2025).

For orientation: EC50 means the concentration at which the effect is half-maximal. What is called IC50 is the point on the concentration scale where inhibition reaches its midpoint.

B1: anti-PVRIG monoclonal antibody ADI-56127 (antibody, V domains shown)
VH: QVQLVQSGAEVKKPGSSVKVSCKASGGTESVDAISWVRQAPGQGLEWMGDIIPFFDTDYAQKFQGRVTITADESTSTAYMELSSLRSEDTAVYYCAREGGTSWTHFFDLWGRGTLVTVSS
VL: not shown
Consider B1, for which the figures for the Kd in experiment [1] and in experiment [3] were 267 pM and 144 pM, respectively. The EC50 is 3350 pM in experiment [2], 2540 pM in experiment [6] and 844 pM in experiment [8]. In addition, the half-maximal inhibitory concentration (IC50) is 261 pM in experiment [4] and 1060 pM in experiment [7]. In addition, the binding result in experiment [5] was “no binding (tested: 100 nM)”.
